Source: the supplement of paper PMC10126150
± gives the standard deviation of the averaged measurements.

System: ATP
Assay: switch fluorescence ratio, 500 uM ATP over buffer (Cy3 cluster intensity, sum of 5 cycles each) (fold (ratio)); higher = stronger signal-on switching upon ATP binding; sequences stand for … in TCGTCGGCAGCGTCAGATGTGTATAAGAGACAGTTTTTTTTTTTTTTTTTTTTTTTTT…TC
Conditions: aptamer strand: ATP DNA aptamer (quencher-CACCTGGGGGAGTATTGCGGAGGAAGG + anchor), 100 nM annealed; ATP concentration: 500 uM
Outline: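 Clusters with intensities outside 100-1000 RFU were excluded. The remaining Cy3-labelled switching-strand clusters on a modified Illumina MiSeq flow-cell had been annealed to 100 nM quencher-labelled ATP aptamer and imaged in selection buffer, then after 15 min with 500 uM ATP at 22 °C, for five cycles separated by NaOH stripping and re-annealing. The fluorescence ratio, averaged per switch-domain sequence, is each cluster's summed target-cycle Cy3 intensity over its summed buffer-cycle Cy3 intensity.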
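Also: ATP exposure 15 min at 22 °C before imaging.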

Row | Sequence | switch fluorescence ratio
1 | CGAGGGAACG | 1 ± 0.04
2 | GCCATAGGTC | 1.012 ± 0.0043
3 | ATTGGATATT | 1.02 ± 0.015
4 | ATTCGGGGGC | 1.11 ± 0.2
5 | GGGGAGTGCT | 0.9872 ± 0.004
6 | CTTGTTAGTA | 0.987 ± 0.027
7 | GATAGGCGTG | 1.01 ± 0.029
8 | CCAGTGAGTC | 1.07 ± 0.041
9 | TTTGCCTCCG | 2.15 ± 1.7
10 | GGGATAAGTT | 0.983 ± 0.035
11 | AAATGTCTAA | 1 ± 0.019
12 | TAGCGAAGTG | 0.929 ± 0.061
13 | TTGTTTACCG | 0.9557 ± 0.0045
14 | TGAATTTAGA | 0.986 ± 0.025
15 | ATACGTTATT | 1.21 ± 0.057
16 | AACTTTAACT | 1.04 ± 0.014
17 | AGGAGCGGCA | 1.018 ± 0.0095
18 | TTTGGAGTTG | 0.987 ± 0.064
19 | GATGTGGGCA | 1.05 ± 0.026
20 | GTTTATACCG | 0.996 ± 0.015
21 | TTGTATAATT | 0.969 ± 0.038
22 | AATTTTAGTA | 1.02 ± 0.019
23 | GAACTTGCCA | 1.06 ± 0.073

Row | Sequence | switch fluorescence ratio
24 | CCCATCCGGT | 1.12 ± 0.023
25 | GCTAGAGTGC | 0.979 ± 0.021
26 | GGGGACCTAG | 1.01 ± 0.015
27 | TTGGTACTTA | 0.995 ± 0.013
28 | AAAAGGGCAG | 0.986 ± 0.031
29 | TGGAAGGTAT | 0.9795 ± 0.0087
30 | GTTTTCTTAG | 0.9737 ± 0.0031
31 | GCCAGGGCGC | 1.02 ± 0.018
32 | GCCGCGAAGG | 1.02 ± 0.018
33 | GGCGGTATGG | 1.01 ± 0.026
34 | CTAAGTTTGG | 1.018 ± 0.0037
35 | AAAGTGTTTG | 1.02 ± 0.016
36 | CTGGTCGAAT | 1 ± 0.017
37 | TGCAAAGGGG | 1.01 ± 0.029
38 | TAACAGGGAG | 1.012 ± 0.01
39 | TATTTAGGGT | 1.01 ± 0.021
40 | ATTTTTTCAG | 1.03 ± 0.014
41 | TATAGGCGCG | 1.03 ± 0.072
42 | AACAAAGAGA | 1.02 ± 0.026
43 | GGGATATCAG | 0.994 ± 0.017
44 | GAGGTAGCTA | 1.03 ± 0.0051
45 | CAGACTTCGG | 0.934 ± 0.016
46 | ACTTTAGGGT | 1.15 ± 0.12

Row | Sequence | switch fluorescence ratio
47 | CTTCTTTTGG | 0.996 ± 0.032
48 | CGGTTGTACC | 1.007 ± 0.0079
49 | GGGGTCGGTT | 1.01 ± 0.051
50 | GGGGTAAGGT | 0.99 ± 0.036
51 | CCGCGGGGTT | 1.2 ± 0.084
52 | TGGTGTTTGC | 1 ± 0.038
53 | AATCATTAGC | 0.985 ± 0.049
54 | ACATTGAGGT | 1.01 ± 0.048
55 | ATTTTTGAGT | 1.02 ± 0.025
56 | TGCGAAAGAT | 1.05 ± 0.086
57 | ATGTAGAGGT | 0.9803 ± 0.0074
58 | GGGTAATAAA | 1.019 ± 0.0052
59 | GAGCGGTATC | 0.997 ± 0.043
60 | CAAGGGAATG | 1 ± 0.022
61 | TTCGTTCTTT | 1.005 ± 0.0043
62 | ATCGGTCTGT | 0.975 ± 0.018
63 | TTACAGTTGG | 1.03 ± 0.023
64 | TATGGGGCTT | 0.992 ± 0.017
65 | AAACTAGAAG | 1.01 ± 0.019
66 | TACGCTGACG | 1.13 ± 0.087
67 | TATTTTGAGA | 0.997 ± 0.012
68 | GTCAGGCCGG | 1.09 ± 0.15
69 | GTGTTTTGGT | 0.98 ± 0.024

Row | Sequence | switch fluorescence ratio
70 | AGGGGGTGTT | 1.02 ± 0.015
71 | CTTATATCTT | 0.993 ± 0.025
72 | CGGGGACGGT | 0.9631 ± 0.0064
73 | TTTGGTTGAT | 0.9967 ± 0.0087
74 | CCTAGCGGTG | 1.12 ± 0.03
75 | TTAGGGAACA | 1.16 ± 0.16
76 | AGAGTTGTGA | 1.02 ± 0.012
77 | CAGGGGGTCC | 1.01 ± 0.022
78 | GTCGGAAGGG | 1.01 ± 0.032
79 | TGATAGATGC | 1.03 ± 0.025
80 | AAAGAGAGAC | 1.0086 ± 0.00021
81 | TCCAAGAGTT | 0.989 ± 0.0055
82 | ATATGAAGGT | 0.9893 ± 0.0047
83 | AGTCATTGTT | 0.989 ± 0.012
84 | TAAGAAGGGG | 1.02 ± 0.023
85 | TGTTGCATAG | 1.01 ± 0.047
86 | AAAAAAGGGA | 0.995 ± 0.022
87 | CGGCGTACTA | 1.06 ± 0.014
88 | CAATTATTTT | 1.02 ± 0.027
89 | GCAAGATCGC | 1.09 ± 0.02
90 | CGGTCTCATC | 1.02 ± 0.014
91 | CGCAGGGGGA | 1.033 ± 0.008
92 | CCAGTTTTTT | 1.002 ± 0.0099

Row | Sequence | switch fluorescence ratio
93 | GGGCGAGTAT | 1.016 ± 0.0029
94 | ATTTTGCTAA | 0.996 ± 0.016
95 | TATTGTCTAC | 0.9901 ± 0.0019
96 | ATACTGTGTT | 1.014 ± 0.0084
97 | TAGAATTATC | 1.017 ± 0.0056
98 | CATTAAAGCC | 0.968 ± 0.025
99 | GTTTGTGGGG | 0.991 ± 0.021
100 | TGACGACCGC | 3.33 ± 0.48
101 | GGTTTTTTTC | 1.02 ± 0.048
102 | AGCAATTGGT | 1.062 ± 0.0086
103 | GAGGGGGAGC | 1.03 ± 0.089
104 | CGGGGGATGT | 0.999 ± 0.024
105 | GCAAGAACTA | 1.042 ± 0.0016
106 | CCAGTAGGTC | 1.03 ± 0.022
107 | AAGACGCTAA | 1.18 ± 0.026
108 | GTTAGAGGGG | 1.01 ± 0.033
109 | GAGTGAGGGT | 0.987 ± 0.031
110 | GGGGAAAAGT | 1.01 ± 0.029
111 | GTGGTGGGGC | 0.955 ± 0.03
112 | ATCGTATGGT | 1 ± 0.023
113 | ATATGTATGC | 0.97875 ± 3.4e-05
114 | TTCATTTCTG | 1.02 ± 0.039
115 | GTGGGGGTTT | 1.05 ± 0.14

Row | Sequence | switch fluorescence ratio
116 | TGGTTGGCTC | 0.985 ± 0.042
117 | TTTAACGTTG | 0.989 ± 0.04
118 | GGTGGGGCGA | 1.01 ± 0.041
119 | TTATCGATGA | 1 ± 0.03
120 | TAGGACTAGA | 0.9597 ± 0.0039
121 | CTGCTCGGTG | 0.987 ± 0.062
122 | GTCGCCGACC | 0.996 ± 0.038
123 | AAGGCTAAGC | 1.024 ± 0.0026
124 | GCATTTTATA | 1.02 ± 0.012
125 | TAGTTATGAG | 1.12 ± 0.19
126 | GGAAATCGGG | 0.989 ± 0.027
127 | TACGGGTCGA | 1.01 ± 0.016
128 | TAGGTGGGGG | 1.01 ± 0.039
129 | CGTGGGGGAC | 0.997 ± 0.033
130 | GCCTTAGTGA | 0.9959 ± 0.0046
131 | GTTTGGGATG | 0.9738 ± 0.0065
132 | GGTAGGTTGC | 1.03 ± 0.013
133 | AAAAGGAAGT | 1.01 ± 0.016
134 | GCAGTGAGGG | 0.991 ± 0.028
135 | TGTCAGAAAT | 0.992 ± 0.02
136 | GAGGGTGCAT | 0.987 ± 0.043
137 | GATTCGTGGC | 0.906 ± 0.14
138 | GGGGGGCGGC | 1.01 ± 0.046

Row | Sequence | switch fluorescence ratio
139 | CAGGGAGCCT | 0.988 ± 0.05
140 | GCAGTTTTAG | 0.999 ± 0.027
141 | TCGAGGGAGT | 1.02 ± 0.028
142 | ACGTTGGTAA | 1.02 ± 0.032
143 | TTTCATATGA | 1 ± 0.0082
144 | CGAGGCTAGG | 1.07 ± 0.021
145 | ATTTTATTTG | 1.06 ± 0.056
146 | TGATAGTCCT | 1.03 ± 0.013
147 | GCTGGGCACT | 1.01 ± 0.035
148 | TGTGTTTCTG | 1.02 ± 0.019
149 | TGGTAGGGGC | 1.02 ± 0.057
150 | GAGTGCAATT | 1.19 ± 0.034
151 | ATGGCTGGGC | 1.005 ± 0.0042
152 | AACGTATATA | 1.13 ± 0.026
153 | TTTGGGCTGG | 1.01 ± 0.06
154 | TAAGTTCTAA | 0.979 ± 0.018
155 | TAGGCGTGGT | 1.01 ± 0.017
156 | AACATGGTGC | 1.01 ± 0.011
157 | AATAAGAGGA | 1.02 ± 0.026
